Paper doi:10.1101/2024.01.20.576400 (bioRxiv, 2024)

Experiments:
[1] = biological target: Pwl2-3 (Magnaporthe oryzae); assay: ITC
[2] = biological target: Pwl2-2 (Magnaporthe oryzae); assay: ITC

Substance: HMA domain of OsHIPP43 (residues 26-101) (from UniProt Q8LJL3 26-101) (domain or fragment)
- Kd [1]: 35 nM
- Kd [2]: 141 nM
